In US20260109763A1 (DENALI THERAPEUTICS, published 2026):
Where a chain is given by its changes, count along the chain named. Read-outs that look alike come from different tables or passages of the source. Values belong to the binder of their own block, whether it stands above or below them.

Experiments:
human PILRA G78 on cells [1] = molecular target: T1, human PILRA G78 on cells (human, UniProt Q9UKJ1 20-303); experiment: flow cytometry on HEK293 cells expressing hPILRA G78
T1 construct: wild-type iMicroglia are R78/G78 heterozygous (said in the assay field); also called hPILRA; hPILRA G78
Description: Parental HEK293 cells were labeled with NucBlue Live ReadyProbes Reagent for 30 mins. […] Antibody binding to the cells was detected by FACS and median fluorescence intensity (MFI) was derived from data analysis performed with the FLOJO software (FIGS. 1A-1C).

[2] = molecular target: T2, cynomolgus monkey PILRA extracellular domain (recombinant) (cynomolgus monkey); experiment: SPR, Biacore 8K, recombinant ECD
T2 construct: also called cynoPILRA; Cyno PILRA
Description: (§1) Antibodies were captured on Biacore™ Series S CM5 sensor chips immobilized with mouse anti-human Fab (human Fab capture kit from GE Healthcare) followed by injections of serial 3-fold dilutions of recombinant ECD reagents at a flow rate of 30 μL/min. Each sample was analyzed using a 3-minute association followed by a 10-minute dissociation. After each injection, the sensor chip was regenerated using a 5 0 mM glycine pH2.0 regeneration buffer. A 1:1 Languir model of simultaneous fitting of kₒₙ and koff was used for kinetics analysis.

[3] = molecular target: T3, human PILRB extracellular domain (recombinant) (human, UniProt Q9UKJ0 20-191); experiment: SPR, Biacore 8K, recombinant ECD
T3 construct: also called hPILRB
Description: as §1

[4] = molecular target: T4, human PILRA G78 extracellular domain (recombinant hPILRA ECD) (human, UniProt Q9UKJ1 20-197); experiment: SPR, Biacore 8K; antibody captured via anti-human Fab, recombinant ECD injected; 1:1 fit;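 note: CM5 sensor chip, ECD analyte in threefold dilution series at 30 µL/min, 3 min association and 10 min dissociation, kon and koff fitted simultaneously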
T4 construct: also called hPILRA G78
Description: as §1

human PILRA G78 on cells [5] = molecular target: T1, human PILRA G78 on cells; experiment: cell-based or functional assay
[6] = molecular target: T3, human PILRB extracellular domain …; experiment: SPR
[7] = molecular target: T4, human PILRA G78 extracellular domain …; experiment: SPR, Biacore 8K; hPILRA ECD; antibody with wild-type Fc
[8] = molecular target: T5, human PILRA R78 extracellular domain (recombinant) (human, UniProt Q9UKJ1 20-197); experiment: SPR
T5 construct: also called hPILRA R78

[9] = molecular target: T4, human PILRA G78 extracellular domain …; experiment: SPR
[10] = molecular target: T2, cynomolgus monkey PILRA extracellular …; experiment: SPR
[11] = molecular target: T3, human PILRB extracellular domain …; experiment: SPR; remark: listed apart in the source
human PILRA R78 on cells [12] = molecular target: T6, human PILRA R78 on cells (human, UniProt Q9UKJ1 20-303); experiment: cell-based or functional assay
human PILRA R78 on cells [13] = molecular target: T6, human PILRA R78 on cells; experiment: flow cytometry on PILRA R78 expressing HEK293 cells (FIG. 1F); HEK293 cells expressing PILRA R78
Description: (§2) PILRA G78 or R78 overexpressing HEK293 cells were stained with NucBlue Live cell stain for 30 mins at RT. […] Cell lines were run in duplicate to account for intra-variability, for a total of N=3. The same protocol was used for CHO-K1 cells expressing hPILRA G78.

human PILRA G78 on cells [14] = molecular target: T1, human PILRA G78 on cells; experiment: flow cytometry on PILRA G78 expressing CHO-K1 cells (FIG. 1H)
Description: as §2

human PILRA G78 on cells [15] = molecular target: T1, human PILRA G78 on cells; experiment: flow cytometry on HEK293 cells expressing hPILRA G78; remark: listed apart in the source
human PILRA G78 on cells [16] = molecular target: T1, human PILRA G78 on cells; experiment: cell-based or functional assay; remark: listed apart in the source
[17] = molecular target: T2, cynomolgus monkey PILRA extracellular …; experiment: SPR, Biacore 8K; antibody captured via anti-human Fab, recombinant ECD injected; 1:1 fit;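 note: CM5 sensor chip, ECD analyte in threefold dilution series at 30 µL/min, 3 min association and 10 min dissociation, kon and koff fitted simultaneously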
Description: as §1

T6 sequence (Q9UKJ1 20-303 limits assumed): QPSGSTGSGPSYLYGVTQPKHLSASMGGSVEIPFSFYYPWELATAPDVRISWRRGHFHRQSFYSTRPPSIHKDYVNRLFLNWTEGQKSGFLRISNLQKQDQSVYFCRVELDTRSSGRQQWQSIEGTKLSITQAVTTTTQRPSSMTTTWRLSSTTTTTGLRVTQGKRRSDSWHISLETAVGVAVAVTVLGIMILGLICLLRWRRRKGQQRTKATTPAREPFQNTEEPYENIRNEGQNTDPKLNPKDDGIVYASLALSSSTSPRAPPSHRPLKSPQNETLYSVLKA
T2 sequence (chain, as listed by the source limits assumed): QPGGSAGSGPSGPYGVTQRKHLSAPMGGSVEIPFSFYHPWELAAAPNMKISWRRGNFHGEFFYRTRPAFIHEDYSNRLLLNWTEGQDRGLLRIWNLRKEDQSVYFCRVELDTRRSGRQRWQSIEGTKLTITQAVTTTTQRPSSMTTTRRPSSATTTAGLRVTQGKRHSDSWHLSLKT
T4 sequence (Q9UKJ1 20-197 R78G limits assumed): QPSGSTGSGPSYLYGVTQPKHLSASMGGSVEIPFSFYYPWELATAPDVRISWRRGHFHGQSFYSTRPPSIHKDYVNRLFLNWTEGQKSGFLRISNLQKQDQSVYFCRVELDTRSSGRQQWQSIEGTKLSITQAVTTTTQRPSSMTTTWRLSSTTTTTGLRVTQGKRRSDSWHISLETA
T1 sequence (Q9UKJ1 20-303 R78G limits assumed): as the sequence (Q9UKJ1 20-303 limits assumed) above, with R59G counted along it
T3 sequence (Q9UKJ0 20-191 limits assumed): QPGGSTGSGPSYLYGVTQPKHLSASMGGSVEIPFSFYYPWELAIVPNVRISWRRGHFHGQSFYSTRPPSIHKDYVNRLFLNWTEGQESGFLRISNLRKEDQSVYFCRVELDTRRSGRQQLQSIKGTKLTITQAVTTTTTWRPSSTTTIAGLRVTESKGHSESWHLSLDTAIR
T5 sequence (Q9UKJ1 20-197 limits assumed): as the sequence (Q9UKJ1 20-197 R78G limits assumed) above, with G59R counted along it

B1: Anti-PILRA antibody clone 10 (antibody, V domains shown)
VH: EVQLVQSGAEIRKPGESLKISCKGSGYSFTTYWIAWVRQMPGKGLEWMGIIYPGDSDTRYSPSFQGQVTISADKSITTAYLQWSSLKASDTGIYYCARTYYYFSGSHWDAFDIWGQGTMVTVSS
VL: DIQMTQSPSSVSAYVGDRVTITCRASQDIRDCLAWYQQKPGKAPKFLIYAASSFQSGVPSGFSGSGSGTDFTLTVTSLQPEDSATYYCQQTHSFPYTFGQGTKLEIK
notes: also called Ab; Clone 10
- EC50 (human PILRA G78 on cells [1]): 1.28 nM
- binding result [2]: no binding
- binding result [3]: no binding
- Kd [4]: 61 nM
- pSTAT3 Y705 induction, EC50 (nM) (human PILRA G78 on cells [5]): 5.69 nM
- pSTAT3 Y705 induction, Fold Over Background (human PILRA G78 on cells [5]): 26.7 fold

B2: Anti-PILRA antibody clone 36 (antibody, V domains shown)
VH: EVQLVQSGAEVKKPGASVKVSCKASGYTFTEYYMYWVRQAPGQGLELIGRIDPEDGGTDYIEKFKNRVTLTADTSTSTAYLELSSLRSEDTAVYYCATTIRGTVFAFWGQGTLVTVSS
VL: DIQMTQSPSSLSASVGDRVTITCRPSEDIYNGLAWYQQKPGKAPKLLIYNANSLHTGVPSRFSGSGSGTDYTLTISSLQPEDFATYFCQQYYDYPLTFGQGTKVEIK
notes: Humanized
- Kd [6]: 42 to 97 nM

B3: Anti-PILRA antibody clone 32 (antibody, V domains shown)
VH: B2 VH
VL: B2 VL with A43S
notes: Humanized
- Kd [7]: 2.8 nM

B4: Anti-PILRA antibody clone 25 (antibody, V domains shown)
VH: B2 VH with V68S, Y95F
VL: B2 VL
notes: Humanized
- Kd [7]: 0.794 nM

B5: Anti-PILRA antibody clone 16 (antibody, V domains shown)
VH: B2 VH with I61V, V68A, L70I, T98S, A106V, F107Y
VL: B2 VL with P25A, Y30F, A43S, N52K, S53T, T69S
notes: Humanized
- Kd [7]: 11 nM

B6: Anti-PILRA antibody clone 34 (antibody, V domains shown)
VH: B2 VH with I61V, T98S, A106V, F107Y
VL: B2 VL with A43S
notes: Humanized
- Kd [7]: 1.8 nM

B8: Anti-PILRA antibody clone 22 (antibody, V domains shown)
VH: B2 VH with I61V, T98S, A106V, F107Y
VL: B2 VL with F87Y
notes: Humanized
- Kd [7]: 0.515 nM

B11: Anti-PILRA antibody clone 27 (antibody, V domains shown)
VH: B2 VH with I61V, V68A, Y95F, T98S, A106V, F107Y
VL: B2 VL
notes: Humanized
- Kd [7]: 0.536 nM

B13: Anti-PILRA antibody clone 17 (antibody, V domains shown)
VH: B2 VH with I61V, T98S, A106V, F107Y
VL: B2 VL with P25A, Y30F, A43S, N52K, S53T, T69S
notes: Humanized
- Kd [7]: 1.29 nM

B14: Anti-PILRA antibody clone 18 (antibody, V domains shown)
VH: B2 VH with I61V, L70I, Y95F, T98S, A106V, F107Y
VL: B2 VL with P25A, Y30F, A43S, N52K, S53T, T69S
notes: Humanized
- Kd [7]: 7.53 nM

B16: Anti-PILRA antibody clone 21 (antibody, V domains shown)
VH: B2 VH with V68S, Y95F
VL: B2 VL with F87Y
notes: Humanized
- Kd [7]: 0.667 nM

B18: Anti-PILRA antibody clone 29 (antibody, V domains shown)
VH: B2 VH with V68S, Y95F
VL: B2 VL with P25A, Y30F, A43S, N52K, S53T, F87Y
notes: Humanized
- Kd [7]: 1.28 nM

B25: Anti-PILRA antibody clone 11 (antibody, V domains shown)
VH: EVKLVESGGGLVRPGGSQKLSCAVSGFAFSGYDMSWVRQTPEKRLEWVATISNGGRHTYYPDSVKGRFTISRDNARNTLYLQMSSLRSEDTALYYCARQKTWDVHAMDYWGQGTSVTVSS
VL: QLVLTQSSSASFSLGASAKLTCTLSSQHSTYTIEWYQQQPLKPPKYVMELKKDGSHSTGDGIPDRFSGSSSGADRYLSISNIQPEDEAIYICGVGDTIKEQFVYVFGGGTKVTVL
- EC50 (human PILRA G78 on cells [1]): 10.5 nM
- binding result [3]: no binding
- Kd [4]: 140 nM
- Kd [17]: 110 nM
- pSTAT3 Y705 induction, Fold Over Background (human PILRA G78 on cells [5]): 1.42 fold

B26: Anti-PILRA antibody clone 9 (antibody, V domains shown)
VH: QVQLQESGPGLVKPSGTLSLTCAVSGGSISSNNWWSWVRQPPGKGLEWIGEIYHFGTTTYNPSLKSRVTISVDKSKNQFSLKLSSLTAADTAVYYCARTLRDFYYYMDVWGKGTTVTVSS
VL: DIHMTQSPSSLSASVGDRVTITCRTSQNINTYLNWYQQRPGRAPKLLIYAASSLQSGVPSRFSGSGSGTDFILSISSLQPEDFATYYCQQSFNIPLTFGGGTKVEIK
notes: also called Ab; Clone 9
- EC50 (human PILRA G78 on cells [1]): 1.28 nM
- binding result [2]: no binding
- binding result [3]: no binding
- Kd [4]: 1.6 nM
- pSTAT3 Y705 induction, EC50 (nM) (human PILRA G78 on cells [5]): 5.93 nM
- pSTAT3 Y705 induction, Fold Over Background (human PILRA G78 on cells [5]): 16.9 fold

The next lines start with the values.

- Kd [7]: 0.915 nM
B7: Anti-PILRA antibody clone 31 (antibody, V domains shown)
VH: B2 VH with I61V, V68A, Y95F, T98S, A106V, F107Y
VL: B2 VL with P25A, Y30F, A43S, N52K, S53T, F87Y
notes: Humanized

- Kd [7]: 0.511 nM
B9: Anti-PILRA antibody clone 26 (antibody, V domains shown)
VH: B2 VH with I61V, T98S, A106V, F107Y
VL: B2 VL
notes: Humanized

- Kd [7]: 1.63 nM
B10: Anti-PILRA antibody clone 14 (antibody, V domains shown)
VH: B2 VH with L70I, Y95F
VL: B2 VL with P25A, Y30F, A43S, N52K, S53T, T69S
notes: Humanized

- Kd [7]: 1.73 nM
B12: Anti-PILRA antibody clone 20 (antibody, V domains shown)
VH: B2 VH
VL: B2 VL with F87Y
notes: Humanized

- Kd [7]: 0.655 nM
B15: Anti-PILRA antibody clone 13 (antibody, V domains shown)
VH: B2 VH
VL: B2 VL with P25A, Y30F, A43S, N52K, S53T, T69S
notes: Humanized

- Kd [7]: 2 nM
B17: Anti-PILRA antibody clone 19 (antibody, V domains shown)
VH: B2 VH with I61V, V68A, Y95F, T98S, A106V, F107Y
VL: B2 VL with P25A, Y30F, A43S, N52K, S53T, T69S
notes: Humanized

- Kd [6]: 100 to 150 nM
B19: Anti-PILRA antibody clone 37 (antibody, V domains shown)
VH: B2 VH
VL: B2 VL with P25A, Y30F, A43S, N52K, S53T, F87Y
notes: Humanized

- Kd [7]: 0.878 nM
B20: Anti-PILRA antibody clone 30 (antibody, V domains shown)
VH: B2 VH with I61V, T98S, A106V, F107Y
VL: B2 VL with P25A, Y30F, A43S, N52K, S53T, F87Y
notes: Humanized

- Kd [7]: 2.04 nM
B21: Anti-PILRA antibody clone 33 (antibody, V domains shown)
VH: B2 VH with V68S, Y95F
VL: B2 VL with A43S
notes: Humanized

- Kd [8]: 10 nM
- Kd [9]: 0.65 nM
- Kd [10]: 0.72 nM
- Kd [11]: 95 nM
- pSTAT3 S727 induction, EC50 (nM) (human PILRA R78 on cells [12]): 12.7 nM
- pSTAT3 S727 induction, Fold Over Background (human PILRA R78 on cells [12]): 24.8 fold
- pSTAT3 Y705 induction, EC50 (nM) (human PILRA R78 on cells [12]): 5.66 nM
- pSTAT3 Y705 induction, Fold Over Background (human PILRA R78 on cells [12]): 38.2 fold
- Kd [7]: 0.917 nM
- EC50 (human PILRA R78 on cells [13]): 2.7 nM
- EC50 (human PILRA G78 on cells [14]): 9 nM
- EC50 (human PILRA G78 on cells [15]): 11.2 nM
- pSTAT3 S727 induction, EC50 (nM) (human PILRA G78 on cells [16]): 17.5 nM
- pSTAT3 S727 induction, Fold Over Background (human PILRA G78 on cells [16]): 32.2 fold
- pSTAT3 Y705 induction, EC50 (nM) (human PILRA G78 on cells [16]): 16.9 nM
- pSTAT3 Y705 induction, Fold Over Background (human PILRA G78 on cells [16]): 33.5 fold
B22: Anti-PILRA antibody clone 15 (antibody, V domains shown)
VH: B2 VH with V68S, Y95F
VL: B2 VL with P25A, Y30F, A43S, N52K, S53T, T69S
notes: Humanized; also called Ab.15

- EC50 (human PILRA G78 on cells [1]): 14.1 nM
- binding result [3]: no binding
- Kd [4]: 1.7 nM
- Kd [17]: 3 nM
B23: Anti-PILRA antibody clone 3 (antibody, V domains shown)
VH: EVQLVESGGGLVQPGRSLRLSCAASGFTFDDYAIHWVRQAPGKGLEWVSGMSWNSGSIGYGDSVKGRFTISRDNAKNSLYLQMNSLRAEDTAFYYCAKDKSIGAAGRFDCWGQGTLVTVSS
VL: not shown

- EC50 (human PILRA G78 on cells [1]): 536 nM
- binding result [3]: no binding
- Kd [4]: 11 nM
- Kd [17]: 59 nM
B24: Anti-PILRA antibody clone 8 (antibody, V domains shown)
VH: QVQLVQSGAEVKKPGASVKVSCKASGYTFTGHYMHWVRQAPGQGLEWMGWINPNSGDTDYAQKFQGRVTMTRDTSISTAYMDLNRLRSDDTAVFYCAREGLDGDPFDYWGQGTLVTVSS
VL: EIMLTQTPLSSPVTLGQPASISCRSSQSLVHSDGNTYLSWLQQRPGQPPRLLIYNISNRFSGVPDRFSGRGAGTDFTLKISRVEAEDVGVYYCIQTTQFSTFGQGTKLEIK
